Results taken from FireProtDB (doi:10.1002/pro.342).

B1: Regulatory protein rop, P03051 (parent)
chain: MTKQEKTALNMARFIRSQTLTLLEKLNELDADEQADICESLHDHADELYRSCLARFGDDGENL

Variants of: B1
Conditions: Escherichia coli, pH 6.3, CD, Phosphate 50 mM, NaCl 300 mM, structure 1ROP, whole UniProt chain shown; for Tm / change of melting temperature, mutant - wild type (higher = more stable) / heat capacity change of unfolding / unfolding enthalpy (van 't Hoff): Thermal

Variant	Tm	change of melting temperature, mutant - wild type (higher = more stable)	heat capacity change of unfolding	unfolding enthalpy (van 't Hoff)	ddG of mutation (higher = less stable) (Urea)	denaturant m value (Urea)	denaturant midpoint (higher = more stable) (Urea)	unfolding free energy (Urea)
C38A C52A	56 °C	-14 °C	1.1 kcal/mol/K	272 kJ/mol	34.7 kJ/mol	0.9 kcal/mol/M	2.3 M	32.2 kJ/mol
C38A C52V	74 °C	4 °C	1.1 kcal/mol/K	272 kJ/mol	–	1.3 kcal/mol/M	4.1 M	46 kJ/mol
